The subject of this assay is mouse basophilic leukemia cells transfected with the human FcεRI IgE receptor (hRBL). Description: IgE-mediated release of β-hexosaminidase (basophil degranulation) in hRBL cells. The conditions noted are these: rIL10 treatment; versus cells treated with Bet v1 alone; serum from seven birch pollen-allergic donors. The class given is cell-based. As to the method: The effect of Pep 1 on IgE-mediated release was studied using mouse basophilic leukemia cells transfected with the human FcεRI IgE receptor (hRBL). The hRBL cells were sensitized with serum from seven patients allergic to birch pollen. The cells were stimulated with the antigen and its interaction with immobilized IgEs resulting in the release of β-hexosaminidase.
When cells were treated with a composition containing Pep 1 to 1 μM (FIG. 10A) or rIL10 (FIG. 10B), the amount of Bet v 1 required to induce the same amount of degranulation was higher than for cells treated with Bet v1 alone (P<0.05). Amount of rBet v 1 (ng/mL) required to induce half the release of β-hexosaminidase using serum from seven birch pollen-allergic donors after treatment with Pep 1 (A) (P<0.05) and rIL10 (B) * P<0.05.

B1: rIL10: recombinant IL-10, used as control (protein, UniProt P22301 19-178, looked up)
Interleukin-10: SPGQGTQSENSCTHFPGNLPNMLRDLRDAFSRVKTFFQMKDQLDNLLLKESLLEDFKGYLGCQALSEMIQFYLEEVMPQAENQDPDIKAHVNSLGENLKTLRLRLRRCHRFLPCENKSKAVEQVKNAFNKLQEKGIYKAMSEFDIFINYIEAYMTMKIRN
B1: the “amount of Bet v 1 required to induce the same amount of degranulation” value is on record as “higher”.

The values above are taken from patent US20220204577A1, “Synthetic Peptides With Affinity for the Interleukin-10 Receptor, Pharmaceutical Composition and Use Thereof as Immunomodulators for Treating Autoimmune, Inflammatory or Allergic Diseases” (Universidade Federal de Uberlândia, priority 2019, published 2022).
